Experimental data from paper PMC2666074 (Biochemistry, 2008).

Columns and labels:
[1] = molecular target: T1, S100A6 (rabbit, intact) (rabbit, UniProt P30801 1-90); experiment: ITC
[2] = molecular target: T1, S100A6 (rabbit, intact); experiment: NMR titration
[3] = molecular target: T1, S100A6 (rabbit, intact); experiment: native MS
[4] = molecular target: the molecule itself; experiment: cross-linking

Kd [1] | stoichiometry N [2] | stoichiometry N [3] | binding result [1] | Binder | binding result [4]
5 µM | 2 SIP per S100A6 dimer | 2 SIP(189–219) per S100A6 dimer | – | SEGLMNVLKKIYEDGDDDMKRTINKAWVESR (peptide, UniProt Q9CXW3 189-219, looked up) [SIP(189–219)] | binds
– | – | – | binds | SIP(178–229), SGS domain of SIP (domain or fragment) EKPSYDTEADPSEGLMNVLKKIYEDGDDDMKRTINKAWVESREKQAREDTEF | –
20 µM | – | – | – | SEGLMNVLKKIYEDG [SIP(189–203)] | –
